Patent publication US10640563B2, “Anti-B7-H3 antibodies and antibody drug conjugates” (AbbVie Inc., priority 2016, dated 2020)

T1: soluble ECD of human B7-H3 (Homo sapiens, UniProt Q5ZPR3)
T1 construct: His tag (6xHis) (C); made in house
T1 sequence (Q5ZPR3 with tags, fused parts or gaps): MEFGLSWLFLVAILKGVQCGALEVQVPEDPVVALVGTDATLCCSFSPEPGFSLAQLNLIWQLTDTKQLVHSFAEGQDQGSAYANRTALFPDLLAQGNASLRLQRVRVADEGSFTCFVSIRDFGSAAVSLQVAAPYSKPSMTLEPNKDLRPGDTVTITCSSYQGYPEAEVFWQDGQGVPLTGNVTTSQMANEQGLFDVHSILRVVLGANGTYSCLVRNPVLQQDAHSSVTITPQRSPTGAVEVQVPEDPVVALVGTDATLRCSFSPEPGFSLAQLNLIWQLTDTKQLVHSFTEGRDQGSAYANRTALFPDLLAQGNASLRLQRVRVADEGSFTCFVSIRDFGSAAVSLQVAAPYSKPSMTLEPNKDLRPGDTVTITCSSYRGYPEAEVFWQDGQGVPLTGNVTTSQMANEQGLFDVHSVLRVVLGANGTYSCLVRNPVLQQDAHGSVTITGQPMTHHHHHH


Legend:
[1] = Aggregation of conjugates by SEC; format: physicochemical
[2] = tested on: HCC38 cell line; experiment: Cell cytotoxicity of ADCs in HCC38 cell line; format: cell-based; conditions: CZ conjugates
Protocol: The humanization of chAb18 generated 10 variants (described above in Table 9) that retained binding to human and cyno B7-H3 as assessed by FACS (the method of which is described above in Example 6). These variants were further characterized for binding by SPR and were successfully conjugated to the Bcl-xL inhibitor synthon CZ using Method A (described above) and assessed for cell cytotoxicity as described in Example 7. The parental chAb18 from which the variants were derived was also tested as a comparator. All humanized variants had similar binding properties as assessed by biacore, and retained binding activity to cell surface expressed as conjugates with the CZ synthon. The cytotoxicity of all of the variants as CZ synthons were similar to the chAb18 from which they were derived.
Humanized chAb18 variants were conjugated to the CZ synthon and tested for cytotoxicity in HCC38 cell line.

[3] = tested on: soluble ECD of cyno B7-H3; experiment: Biacore T200 SPR binding kinetics, mAb capture; parameters: species or system cynomolgus monkey; conditions: Biacore T200, Fc capture of mAb, B7-H3 ECD as analyte, 1:1 binding model
Chain of soluble ECD of cyno B7-H3 (as listed by the source): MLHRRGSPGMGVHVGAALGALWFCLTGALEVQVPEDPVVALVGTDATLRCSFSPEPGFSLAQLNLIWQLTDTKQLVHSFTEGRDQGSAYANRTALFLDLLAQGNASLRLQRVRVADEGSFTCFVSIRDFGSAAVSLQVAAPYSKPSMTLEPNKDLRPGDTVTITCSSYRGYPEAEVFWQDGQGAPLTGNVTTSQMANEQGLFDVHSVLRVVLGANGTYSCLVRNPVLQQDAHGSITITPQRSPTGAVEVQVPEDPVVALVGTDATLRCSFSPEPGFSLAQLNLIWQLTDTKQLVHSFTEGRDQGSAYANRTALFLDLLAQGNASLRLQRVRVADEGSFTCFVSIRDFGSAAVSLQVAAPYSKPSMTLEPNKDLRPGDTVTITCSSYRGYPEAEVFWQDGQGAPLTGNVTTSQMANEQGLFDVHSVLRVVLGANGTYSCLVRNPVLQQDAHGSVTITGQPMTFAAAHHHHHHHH

[4] = biological target: T1, soluble ECD of human B7-H3; experiment: Biacore T200 SPR binding kinetics, mAb capture; conditions: Biacore T200, Fc capture of mAb, B7-H3 ECD as analyte, 1:1 binding model
Protocol: The binding affinity of the purified anti-B7-H3 monoclonal antibodies was determined by surface […]. […] The binding kinetics were derived from SPR measurements using a Biacore T200 instrument and a mAb capture approach (as described in the materials and methods below).
Biacore T200 SPR instruments were used to measure the binding kinetics of human B7-H3 (analyte) binding to various mAbs (ligands). The assay format was Fc-based capture via immobilized anti-mouse (Fc) (Pierce 31170) or immobilized anti-human (Fc) (Pierce 31125). A standard amine coupling protocol was employed to immobilize the capture reagents via primary amines to the carboxy-methyl (CM) dextran surface of CM5 sensorchips (Biacore); capture antibodies were coupled to a level of approximately 5000 RU. For binding kinetic measurements the assay buffer was HBS-EP+ (Biacore): 10 mM Hepes, pH7.4, 150 mM NaCl, 3 mM EDTA, 0.05% polysorbate 20. During the assay, all measurements were referenced against the capture surface alone. Each assay cycle consisted of the following steps: 1) Capture of ligand to approximately 50 RU; 2) Analyte injection over both reference and test surface, 240 μL at 80 μL/min, after which the dissociation was monitored for 900 seconds at 80 μL/min; 3) Regeneration of capture surface with low pH glycine. For kinetic determinations analyte injections were 3-point, 9-fold dilution series of 900 nM, 100 nM and 11.11 nM, buffer only injections were included for secondary referencing. Data were processed and fit to a 1:1 binding model using Biacore T200 Evaluation Software to determine the binding kinetic rate constants, ka (on-rate) and kd (off-rate), and the equilibrium dissociation constant (affinity, KD).

[5] = Table 10, CZ conjugates of Ab18 variants
[6] = Table 14, CZ conjugates of Ab3 variants

Molecule | % agg by SEC [1, 5] [%] | cynoB7-H3 ka [3] [M⁻¹ s⁻¹] | cynoB7-H3 kd [3] [s⁻¹] | huB7-H3 ka [4] [M⁻¹ s⁻¹] | huB7-H3 kd [4] [s⁻¹] | other results
huAb18v2-CZ (conjugate) VH: EVQLVQSGAEVKKPGSSVKVSCKASGYSFTSYTIHWVRQAPGQGLEWMGYINPNSRNTDYAQKFQGRVTLTADKSTSTAYMELSSLRSEDTAVYYCARYSGSTPYWYFDVWGQGTTVTVSS VL: DIQLTQSPSFLSASVGDRVTITCRASSSVSYMNWYQQKPGKAPKLLIYATSNLASGVPSRFSGSGSGTEFTLTISSLQPEDFATYYCQQWSSNPLTFGQGTKLEIK | 3.3 | – | – | – | – | –
huAb18v5-CZ (conjugate) VH: EVQLVQSGAEVKKPGSSVKVSCKASGYSFTSYTIHWVRQAPGQGLEWMGYINPNSRNTDYNQKFKDRVTITADKSTSTAYMELSSLRSEDTAVYYCARYSGSTPYWYFDVWGQGTTVTVSS VL: EIVLTQSPDFQSVTPKEKVTITCRASSSVSYMNWYQQKPDQSPKLLIKATSNLASGVPSRFSGSGSGTDFTLTINSLEAEDAATYYCQQWSSNPLTFGQGTKLEIK | 4.2 | – | – | – | – | IC50 ([2]; Table 10): 0.12 nM
huAb18v10-CZ (conjugate) VH: EVQLVQSGAEVKKPGSSVKVSCKASGYSFTSYTIHWVRQAPGQGLEWMGYINPNSRNTDYAQKFQGRVTLTADKSTSTAYMELSSLRSEDTAVYYCARYSGSTPYWYFDVWGQGTTVTVSS VL: DIQLTQSPSFLSASVGDRVTITCRASSSVSYMNWYQQKPGKAPKPWIYATSNLASGVPSRFSVSGSGTEHTLTISSLQPEDFATYYCQQWSSNPLTFGQGTKLEIK | 3.2 | – | – | – | – | –
huAb18v8-CZ (conjugate) VH: EVQLVQSGAEVKKPGSSVKVSCKASGYSFTSYTIHWVRQAPGQGLEWIGYINPNSRNTDYNQKFKDRTTLTADRSTSTAYMELSSLRSEDTAVYYCARYSGSTPYWYFDVWGQGTTVTVSS VL: DIQLTQSPSFLSASVGDRVTITCRASSSVSYMNWYQQKPGKAPKPWIYATSNLASGVPSRFSVSGSGTEHTLTISSLQPEDFATYYCQQWSSNPLTFGQGTKLEIK | 3.5 | – | – | – | – | IC50 ([2]; Table 10): 1.3 nM
huAb3v3-CZ (conjugate) VH: EVQLVQSGAEVKKPGSSVKVSCKASGYTFSSYWMHWVRQAPGQGLEWIGLIHPDSGSTNYNEMFKNRATLTVDRSTSTAYVELSSLRSEDTAVYFCAGGGRLYFDYWGQGTTVTVSS VL: DVVMTQSPLSLPVTPGEPASISCRSSQSLVHSNGDTYLRWYLQKPGQSPQLLIYKVSNRFSGVPDRFSGSGSGTDFTLKISRVEAEDVGVYFCSQSTHVPYTFGGGTKVEIK | – | – | – | – | – | IC50 ([2]; Table 14): 9.22 nM; % agg by SEC [1, 6]: 2.5%
huAb3v5-CZ (conjugate) VH: EVQLVQSGAEVKKPGSSVKVSCKASGYTFSSYWMHWVRQAPGQGLEWIGLIHPDSGSTNYNEMFKNRATLTVDRSTSTAYMELSSLRSEDTAVYYCAGGGRLYFDYWGQGTTVTVSS VL: DVVMTQSPLSLPVTPGEPASISCRSSQSLVHSNGDTYLRWYLQKPGQSPQLLIYKVSNRFSGVPDRFSGSGSGTDFTLKISRVEAEDVGVYYCSQSTHVPYTFGGGTKVEIK | – | – | – | – | – | IC50 ([2]; Table 14): 0.17 nM; % agg by SEC [1, 6]: 5.9%
huAb3v1-CZ (conjugate) VH: EVQLVQSGAEVKKPGSSVKVSCKASGYTFSSYWMHWVRQAPGQGLEWMGLIHPDSGSTNYNEMFKNRVTITADKSTSTAYMELSSLRSEDTAVYYCARGGRLYFDYWGQGTTVTVSS VL: DIVMTQSPLSLPVTPGEPASISCRSSQSLVHSNGDTYLRWYLQKPGQSPQLLIYKVSNRFSGVPDRFSGSGSGTDFTLKISRVEAEDVGVYYCSQSTHVPYTFGGGTKVEIK | – | – | – | – | – | IC50 ([2]; Table 14): 0.53 nM; % agg by SEC [1, 6]: 3.3%
Ab17 (antibody, V domains shown) VH: EVKLVESGGGLVQPGGSLKLSCAASGFTFSSYIMSWVRQTPEKRLEWVASIVSSNITYYPDSMKGRFTISRDNARNILYLQMSSLKSEDTAMYYCARSGTRAWFAYWGQGTLVTVSA VL: DIVLTQSPASLAVSLGQRATISCRASKSVSTSAYSYMHWYQQKPGQPPKLLIYLASNLESGVPARFSGSGSGTDFTLNIHPVEEEDAATYYCQHSRELPYTFGGGTKLEIK | – | 510000 | 1e-05 | 540000 | 1.9e-05 | –
Ab16 (antibody, V domains shown) VH: EVKLLESGGGLVQPGGSLKLSCAASGFDFSRYWMSWVRQAPGKGLEWIGEINPDSSTINYTPSLKDKFIISRDNAKNTLYLQMSKVRSEDTALYYCARPGFGNYIYAMDYWGQGTSVTVSS VL: DIQMTQTTSSLSASLGDRVTINCRASQDISNFLNWYQQKPDGTVKLLIYYTSRLYLGVPSRFSGSGSGTDYSLTISNLEQEDIATYFCQQGNTLPPTFGGGTKLEIK | – | 750000 | 0.0056 | 140000 | 0.0032 | –
Ab13 (antibody, V domains shown) VH: DVQLQESGPDLVKPSQSLSLTCTVTGYSITSGYSWHWIRQFPGNKLEWMGYIHSSGSTNYNPSLKSRISINRDTSKNQFFLQLNSVTTEDTATYYCAGYDDYFEYWGQGTTLTVSS VL: DIVMTQSQKFMSTSVGDRVSVTCKASQNVGFNVAWYQQKPGQSPKALIYSASYRYSGVPDRFTGSGSGTDFTLTISNVQSEDLAEYFCQQYNSYPFTFGSGTKLEIK | – | 440000 | 0.0037 | 330000 | 0.0058 | –
Ab14 (antibody, V domains shown) VH: EVKLVESGGGLVKPGGSLKLSCAASGFTFSSYGMSWVRQTPEKRLEWVATISGGGTNTYYPDSVEGRFTISRDNAKNFLYLQMSSLRSEDTALYYCARHYGSQTMDYWGQGTSVTVSS VL: DIQMTQSPASLSASVGETVTITCRTSGNIHNYLTWYQQKQGKSPQLLVYNAKTLADGVPSRFSGSGSGTQFSLKINSLQPEDFGSYYCQHFWSIMWTFGGGTKLEIK | – | 690000 | 0.003 | 110000 | 0.0014 | –
Ab10 (antibody, V domains shown) VH: DVQLQESGPGLVKPSQSLSLTCTVTGYSITSDYAWNWIRQFPGNRLEWMGHINYSGITNYNPSLKSRISITRDTSKNQFFLQLYSVTTEDTATYFCARRSLFYYYGSSLYAMDYWGQGTSVTVSS VL: DVVMTQSPFSLPVSLGDQASISCRSSQSLVHSNGNTYLHWYLQKPGQSPKLLIYKVSNRFSGVPDRFSGSGSGTDFTLKISRVEAEDLGVYFCSQSTHVPWTFGGGTKLEIK | – | 200000 | 0.0042 | 41000 | 0.00019 | –
Ab2 (antibody, V domains shown) VH: QVQLQQPGAELVKPGASVKLSCKASGYTFTSYWMHWVKQRPGQGLEWIGMIHPDSGTTNYNEKFRSKATLTVDKSSSTAYMQLSSLTSEDSAVYYCAVYYGSTYWYFDVWGTGTTVTVSS VL: DVVMTQTPLSLPVSLGDQAYISCRSSQSLVHINGNTYLHWYRQKPGQSPKLLIYKVSNRFSGVPDRFSGSGSGTDFTLKISRVEAEDLGVYFCSQSTHFPFTFGSGTKLEIK | – | 230000 | 0.011 | 120000 | 0.0029 | –
